Results as given in IntAct's records for PubMed 19817875.

B1: Actin nucleation-promoting factor WAS (Homo sapiens), P42768 (parent)
chain: MSGGPMGGRPGGRGAPAVQQNIPSTLLQDHENQRLFEMLGRKCLTLATAVVQLYLALPPGAEHWTKEHCGAVCFVKDNPQKSYFIRLYGLQAGRLLWEQELYSQLVYSTPTPFFHTFAGDDCQAGLNFADEDEAQAFRALVQEKIQKRNQRQSGDRRQLPPPPTPANEERRGGLPPLPLHPGGDQGGPPVGPLSLGLATVDIQNPDITSSRYRGLPAPGPSPADKKRSGKKKISKADIGAPSGFKHVSHVGWDPQNGFDVNNLDPDLRSLFSRAGISEAQLTDAETSKLIYDFIEDQGGLEAVRQEMRRQEPLPPPPPPSRGGNQLPRPPIVGGNKGRSGPLPPVPLGIAPPPPTPRGPPPPGRGGPPPPPPPATGRSGPLPPPPPGAGGPPMPPPPPPPPPPPSSGNGPAPPPLPPALVPAGGLAPGGGRGALLDQIRQGIQLNKTPGAPESSALQPPPQSSEGLVGALMHVMQKRSRAIHSSDEGEDQAGDEDEDDEWDD

Tests used:
Conditions in all cases: with wipf1_human WIPF1, O43516
Chain of wipf1_human WIPF1, O43516 (O43516 whole entry): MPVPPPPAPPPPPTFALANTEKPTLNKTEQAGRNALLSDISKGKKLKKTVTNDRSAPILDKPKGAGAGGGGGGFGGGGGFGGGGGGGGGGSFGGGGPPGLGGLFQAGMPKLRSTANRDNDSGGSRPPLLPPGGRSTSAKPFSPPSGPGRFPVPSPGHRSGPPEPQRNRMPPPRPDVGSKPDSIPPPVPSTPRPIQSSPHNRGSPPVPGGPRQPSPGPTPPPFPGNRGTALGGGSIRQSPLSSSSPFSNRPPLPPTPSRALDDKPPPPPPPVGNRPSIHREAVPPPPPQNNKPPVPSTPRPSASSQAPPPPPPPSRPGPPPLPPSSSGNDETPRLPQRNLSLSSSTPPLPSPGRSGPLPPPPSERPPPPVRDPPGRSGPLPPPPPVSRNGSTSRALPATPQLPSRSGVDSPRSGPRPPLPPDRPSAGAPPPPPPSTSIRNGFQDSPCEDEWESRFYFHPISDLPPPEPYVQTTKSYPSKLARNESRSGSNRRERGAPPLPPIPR

[1] = variants of: B1
[2] = variants of: B1; remark: listed apart in the source
[3] = variants of: B1; remark: listed apart in the source

| Variant | effect of a mutation on the interaction [1] | effect of a mutation on the interaction [2] | effect of a mutation on the interaction [3] |
| --- | --- | --- | --- |
| C73Y | disrupting interaction strength | decreasing interaction strength |  |
| I85T | with no effect | decreasing interaction strength | disrupting interaction strength |
| A134T | disrupting interaction strength | decreasing interaction strength |  |
